Laboratory results taken from the Immune Epitope Database (IEDB).

How the values were obtained:
HLA-B*39:01 [1] = assay: IEDB peptide-MHC binding, purified MHC/direct/fluorescence; filed as Kd, often an IC50 or EC50 that approximates it; ≥ and ≤ were set here for values at or beyond the usual limits of such assays
HLA-B*15:09 = assay: as above
HLA-A*02:50 = assay: IEDB peptide-MHC binding, purified MHC/competitive/fluorescence; filed as Kd, often an IC50 or EC50 that approximates it; ≥ and ≤ were set here for values at or beyond the usual limits of such assays
HLA-A*69:01 [2] = assay: IEDB peptide-MHC binding, purified MHC/direct/fluorescence; filed as Kd, often an IC50 or EC50 that approximates it; ≥ and ≤ were set here for values at or beyond the usual limits of such assays
HLA-A*02:01 [3] = assay: as above
HLA-A*02:11 [4] = assay: as above
HLA-C*12:03 = assay: as above; conditions: source organism: Salmonella enterica subsp. enterica serovar Typhi
HLA-B*51:01 = assay: IEDB peptide-MHC binding, purified MHC/competitive/fluorescence; filed as Kd, often an IC50 or EC50 that approximates it; ≥ and ≤ were set here for values at or beyond the usual limits of such assays; conditions: source organism: Canarypox virus
HLA-A*02:03 = assay: as above
HLA-A*68:02 [5] = assay: as above; conditions: source organism: Canarypox virus
HLA-A*31:01 [6] = assay: as above; conditions: source organism: Canarypox virus
HLA-A*02:19 = assay: as above; conditions: source organism: Canarypox virus
HLA-B*18:01 [7] = assay: as above; conditions: source organism: Canarypox virus
HLA-B*27:03 = assay: as above; conditions: source organism: Canarypox virus
HLA-A*69:01 [8] = assay: as above; conditions: source organism: Canarypox virus
HLA-B*15:17 [9] = assay: as above; conditions: source organism: Canarypox virus
HLA-B*39:01 [10] = assay: as above; conditions: source organism: Canarypox virus
HLA-A*02:01 [11] = assay: as above; conditions: source organism: Canarypox virus
HLA-A*26:01 [12] = assay: as above; conditions: source organism: Canarypox virus
HLA-A*24:03 = assay: as above; conditions: source organism: Canarypox virus
HLA-A*02:12 = assay: as above; conditions: source organism: Canarypox virus
HLA-B*46:01 = assay: as above; conditions: source organism: Canarypox virus
HLA-A*02:11 [13] = assay: as above; conditions: source organism: Canarypox virus
HLA-B*15:01 [14] = assay: as above; conditions: source organism: Canarypox virus
HLA-B*57:01 [15] = assay: as above; conditions: source organism: Canarypox virus
HLA-A*23:01 = assay: as above; conditions: source organism: Canarypox virus
HLA-A*02:16 = assay: as above; conditions: source organism: Canarypox virus
HLA-B*27:05 = assay: IEDB peptide-MHC binding, purified MHC/direct/fluorescence; filed as Kd, often an IC50 or EC50 that approximates it; ≥ and ≤ were set here for values at or beyond the usual limits of such assays; conditions: source organism: Mycobacterium tuberculosis
HLA-B*07:02 = assay: as above; conditions: source organism: Mycobacterium tuberculosis
HLA-B*08:01 = assay: as above; conditions: source organism: Mycobacterium tuberculosis str. Haarlem
HLA-B*40:01 = assay: as above; conditions: source organism: Mycobacterium tuberculosis
HLA-B*58:01 = assay: as above; conditions: source organism: Mycobacterium tuberculosis
HLA-A*68:02 [16] = assay: as above; conditions: source organism: Mycobacterium tuberculosis
HLA-A*11:01 = assay: as above; conditions: source organism: Mycobacterium tuberculosis
HLA-A*31:01 [17] = assay: as above; conditions: source organism: Mycobacterium tuberculosis
HLA-B*48:01 = assay: as above; conditions: source organism: Mycobacterium tuberculosis
HLA-A*01:01 = assay: as above; conditions: source organism: Mycobacterium tuberculosis
HLA-B*18:01 [18] = assay: as above; conditions: source organism: Mycobacterium tuberculosis
HLA-B*15:17 [19] = assay: as above; conditions: source organism: Mycobacterium tuberculosis
HLA-B*44:02 = assay: as above; conditions: source organism: Mycobacterium tuberculosis
HLA-A*26:01 [20] = assay: as above; conditions: source organism: Mycobacterium tuberculosis str. Haarlem
HLA-A*03:01 = assay: as above; conditions: source organism: Mycobacterium tuberculosis
HLA-B*15:01 [21] = assay: as above; conditions: source organism: Mycobacterium tuberculosis
HLA-B*57:01 [22] = assay: as above; conditions: source organism: Mycobacterium tuberculosis
[23] = source organism: Salmonella enterica subsp. enterica serovar Typhi
[24] = source organism: Mycobacterium tuberculosis
[25] = source organism: Mycobacterium tuberculosis str. Haarlem

**Q.** For AHDELENYI, which Kd (HLA-B*39:01 [1]; source organism: Camelpox virus CMS) is on record?
**A.** Its Kd is 2.86 µM.

**Q.** And the Kd (HLA-B*15:09; source organism: Variola virus)?
**A.** Its Kd is 1.67 µM.

**Q.** Which results are given for FIKNPACTV?
**A.** Kd (HLA-A*02:50; [23]): 0.0019 µM; Kd (HLA-A*69:01 [2]; [23]): 0.154 µM; Kd (HLA-A*02:01 [3]; [23]): 6.36 µM; Kd (HLA-A*02:11 [4]; [23]): 0.002 µM; Kd (HLA-C*12:03): ≤ 0.001 µM

**Q.** Which results are given for GTIIVHPNK?
**A.** Kd (HLA-B*51:01): ≥ 20 µM; Kd (HLA-A*02:03; source organism: Canarypox virus): ≥ 20 µM; Kd (HLA-A*68:02 [5]): ≥ 20 µM; Kd (HLA-A*31:01 [6]): 0.101 µM; Kd (HLA-A*02:19): ≥ 20 µM; Kd (HLA-B*18:01 [7]): ≥ 20 µM; Kd (HLA-B*27:03): ≥ 20 µM; Kd (HLA-A*69:01 [8]): ≥ 20 µM; Kd (HLA-B*15:17 [9]): ≥ 20 µM; Kd (HLA-B*39:01 [10]): ≥ 20 µM; Kd (HLA-A*02:01 [11]): ≥ 20 µM; Kd (HLA-A*26:01 [12]): ≥ 20 µM; Kd (HLA-A*24:03): ≥ 20 µM; Kd (HLA-A*02:12): ≥ 20 µM; Kd (HLA-B*46:01): ≥ 20 µM; Kd (HLA-A*02:11 [13]): ≥ 20 µM; Kd (HLA-B*15:01 [14]): ≥ 20 µM; Kd (HLA-B*57:01 [15]): ≥ 20 µM; Kd (HLA-A*23:01): ≥ 20 µM; Kd (HLA-A*02:16): ≥ 20 µM

**Q.** What does the source list for SFYGYGFNV?
**A.** Kd (HLA-A*02:50; source organism: Mycobacterium tuberculosis H37Ra): 0.0224 µM; Kd (HLA-A*69:01 [2]; [24]): 0.052 µM; Kd (HLA-A*02:01 [3]; [24]): 0.413 µM; Kd (HLA-A*02:11 [4]; [25]): 0.01 µM

**Q.** For WEITYLGTT, which Kd (HLA-A*02:03; source organism: Mycobacterium tuberculosis variant bovis BCG str. Pasteur 1173P2) is on record?
**A.** The Kd was ≥ 20 µM.

**Q.** And the Kd (HLA-B*27:05)?
**A.** The Kd was ≥ 20 µM.

**Q.** And the Kd (HLA-B*07:02)?
**A.** The Kd was ≥ 20 µM.

**Q.** What about the Kd (HLA-B*08:01) of the same sequence?
**A.** Its Kd is ≥ 20 µM.

**Q.** And the Kd (HLA-B*40:01)?
**A.** The Kd was 3.26 µM.

**Q.** And the Kd (HLA-B*58:01)?
**A.** Its Kd is ≥ 20 µM.

**Q.** And the Kd (HLA-A*68:02 [16])?
**A.** Its Kd is ≥ 20 µM.

**Q.** What about the Kd (HLA-A*11:01) of the same sequence?
**A.** The Kd was ≥ 20 µM.

**Q.** And the Kd (HLA-A*31:01 [17])?
**A.** The Kd was ≥ 20 µM.

**Q.** And the Kd (HLA-B*48:01)?
**A.** Its Kd is ≥ 20 µM.

**Q.** And the Kd (HLA-A*01:01)?
**A.** The Kd was ≥ 20 µM.

**Q.** What about the Kd (HLA-B*18:01 [18]) of the same sequence?
**A.** Its Kd is 0.297 µM.

**Q.** What about the Kd (HLA-A*69:01 [2]; [24]) of the same sequence?
**A.** Its Kd is ≥ 20 µM.

**Q.** What about the Kd (HLA-B*15:17 [19]) of the same sequence?
**A.** The Kd was ≥ 20 µM.

**Q.** And the Kd (HLA-B*44:02)?
**A.** Its Kd is ≥ 20 µM.

**Q.** And the Kd (HLA-B*39:01 [1]; [25])?
**A.** Its Kd is ≥ 20 µM.

**Q.** And the Kd (HLA-A*02:01 [3]; [24])?
**A.** The Kd was ≥ 20 µM.

**Q.** What about the Kd (HLA-B*15:09; [25]) of the same sequence?
**A.** The Kd was ≥ 20 µM.

**Q.** What about the Kd (HLA-A*26:01 [20]) of the same sequence?
**A.** Its Kd is ≥ 20 µM.

**Q.** And the Kd (HLA-A*03:01)?
**A.** Its Kd is ≥ 20 µM.

**Q.** What about the Kd (HLA-B*15:01 [21]) of the same sequence?
**A.** The Kd was ≥ 10 µM.

**Q.** And the Kd (HLA-B*57:01 [22])?
**A.** Its Kd is ≥ 20 µM.
